This is an account of results in US6989260B2, “Human poly(ADP-ribose) polymerase 2 materials and methods” (ICOS Corporation, priority 1999, dated 2006).

This data set deals with hPARP2 poly(ADP-ribose) polymerase activity. Kind of data set: Poly(ADP-ribose) polymerase activity assay (32P-NAD+ incorporation, SDS-PAGE, autoradiography). The data set is classed as biochemical, human. The following applies: 250 ng PARP1A/PARP2B or 25 ng FB-hPARP2, 10 min at room temperature, 2.5 μM unlabeled NAD+, E. coli Strain B DNA, gamma-[32P]-NAD+. From the text:
The PARP activity of hPARP2, or some substructure thereof, can be measured by the ability of that component to incorporate the ADP-ribose unit from NAD into polymers of ADP-ribose coupled to a protein substrate.
A fusion protein, designated PARP1A/PARP2B, containing aa 1–662 of hPARP1 (SEQ ID NO:25) fused upstream of aa 230–583 of hPARP2 (SEQ ID NO:2) was used in the measurement of hPARP2 poly(ADP-ribose) polymerase activity. PARP1A/PARP2B contained the DNA binding domain (aa 1–373 of SEQ ID NO:25) and automodification domain (aa 373–525 of SEQ ID NO:25) of hPARP1 and the putative catalytic domain of hPARP2 (aa […] of SEQ ID NO:2).
In addition to PARP1A/PARP2B, a full-length hPARP2 protein fused to a poly-His tag (FB-hPARP2) was constructed for use in the measurement of hPARP2 poly(ADP-ribose) polymerase activity. The construction of FB-hPARP2 was carried out as follows.
For poly(ADP-ribose) polymerase activity assays, reagents were obtained from Sigma, unless otherwise indicated. PARP1A/PARP2B (250 ng) or FB-hPARP2 (25 ng) protein was incubated for 10 min at room temperature in assay buffer (total volume of 20 μL) containing 100 mM Tris, pH 8.0, 1 mM MgCl2, 10% glycerol, 1.5 mM dithiothreitol (Boehringer Mannheim/Roche Molecular Biochemicals, Indianapolis, Ind.), 2.5 μM unlabeled NAD^+, 16.7 μg/mL E. coli Strain B DNA, and 0.33 μCi gamma-[^32P]-NAD^+ (NEN, Boston, Mass.). […]

As to “PARP1A/PARP2B: fusion protein containing aa 1–662 of hPARP1 fused upstream of aa 230–583 of hPARP2; His tag leader, Strep-tag (SEQ ID NO:47)”, the “intrinsic poly(ADP-ribose) polymerase activity (ability to produce poly(ADP-ribose) polymers)” value is on record as “possessed intrinsic poly(ADP-ribose) polymerase activity”.

B1: FB-hPARP2: full-length hPARP2 protein fused to a poly-His tag (SEQ ID NO:59) (protein)
chain: MRGSHHHHHHDYDIPTTENLYFQGAMDPEFKGLRRPMAARRRRSTGGGRARALNESKRVNNGNTAPEDSSPAKKTRRCQRQESKKMPVAGGKANKDRTEDKQDGMPGRSWASKRVSESVKALLLKGKAPVDPECTAKVGKAHVYCEGNDVYDVMLNQTNLQFNNNKYYLIQLLEDDAQRNFSVWMRWGRVGKMGQHSLVACSGNLNKAKEIFQKKFLDKTKNNWEDREKFEKVPGKYDMLQMDYATNTQDEEETKKEESLKSPLKPESQLDLRVQELIKLICNVQAMEEMMMEMKYNTKKAPLGKLTVAQIKAGYQSLKKIEDCIRAGQHGRALMEACNEFYTRIPHDFGLRTPPLIRTQKELSEKIQLLEALGDIEIAIKLVKTELQSPEHPLDQHYRNLHCALRPLDHESYEFKVISQYLQSTHAPTHSDYTMTLLDLFEVEKDGEKEAFREDLHNRMLLWHGSRMSNWVGILSHGLRIAPPEAPITGYMFGKGIYFADMSSKSANYCFASRLKNTGLLLLSEVALGQCNELLEANPKAEGLLQGKHSTKGLGKMAPSSAHFVTLNGSTVPLGPASDTGILNPDGYTLNYNEYIVYNPNQVRMRYLLKVQFNFLQLW
modifications: poly-His tag
Regarding B1, the “intrinsic poly(ADP-ribose) polymerase activity (ability to produce poly(ADP-ribose) polymers)” value is “possessed intrinsic poly(ADP-ribose) polymerase activity”.
